Positions count from the first letter of the chain named.
T1: human CD228 (R&D Systems Custom02; Lot DCWR021505A) (human, UniProt P08582 20-709, limits assumed)
T1 construct: Bought custom protein coated on ELISA plates; also called CD228 protein; melanotransferrin
T1 sequence (looked up): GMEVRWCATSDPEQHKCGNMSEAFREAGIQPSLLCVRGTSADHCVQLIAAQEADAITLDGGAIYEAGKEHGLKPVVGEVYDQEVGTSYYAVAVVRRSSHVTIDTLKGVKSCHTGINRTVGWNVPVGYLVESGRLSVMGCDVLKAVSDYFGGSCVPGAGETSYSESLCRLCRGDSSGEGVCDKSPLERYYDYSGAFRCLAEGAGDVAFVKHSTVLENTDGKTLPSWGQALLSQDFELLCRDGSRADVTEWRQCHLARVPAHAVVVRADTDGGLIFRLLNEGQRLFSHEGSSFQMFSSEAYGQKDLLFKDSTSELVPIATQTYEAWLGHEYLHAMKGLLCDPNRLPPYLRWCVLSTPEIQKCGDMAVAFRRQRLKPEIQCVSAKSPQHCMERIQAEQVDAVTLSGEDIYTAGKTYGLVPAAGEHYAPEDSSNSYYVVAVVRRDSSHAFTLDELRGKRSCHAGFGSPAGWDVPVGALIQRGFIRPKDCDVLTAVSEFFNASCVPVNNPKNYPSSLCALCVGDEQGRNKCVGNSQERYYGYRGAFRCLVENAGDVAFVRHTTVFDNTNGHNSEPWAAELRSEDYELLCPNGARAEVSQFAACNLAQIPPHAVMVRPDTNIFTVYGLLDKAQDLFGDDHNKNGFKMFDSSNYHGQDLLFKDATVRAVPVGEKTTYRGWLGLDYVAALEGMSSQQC

T2: CD228 on A375 and A2058 cells (human, UniProt P08582 20-709)
T2 construct: whole, on cells; GPI-anchored cell surface protein; also called CD228 on A375 cells; CD228 on A2058 cells
T2 sequence (looked up): T1 sequence (looked up)

B1: hL49_27D_Gln (antibody, V domains shown)
VH: QVQLQESGPGLVKPSETLSLTCTVSGDSITSGYWNWIRQPPGKGLEYIGYISDSGITYYNPSLKSRVTISRDTSKNQYSLKLSSVTAADTAVYYCARRTLATYYAMDYWGQGTLVTVSS
VL: DFVMTQSPLSLPVTLGQPASISCRASQSLVQSDGNTYLHWYQQRPGQSPRLLIYRVSNRFSGVPDRFSGSGSGTDFTLKISRVEAEDVGVYYCSQSTHVPPTFGQGTKLEIK
notes: hL49 variant with the light chain CDR-L1 histidine 27D changed to glutamine
B2: hL49_27D_Tyr (antibody, V domains shown)
VH: B1 VH
VL: B1 VL with Q31Y
notes: hL49 variant with the light chain CDR-L1 histidine 27D changed to tyrosine
B3: hL49_3X_Ala (antibody, V domains shown)
VH: B1 VH
VL: B1 VL with Q31A, H39A, H98A
notes: hL49 triple mutant: all three light chain CDR histidines (two in CDR-L1, one in CDR-L3) changed to alanine
B4: hL49_27D_Ala (antibody, V domains shown)
VH: B1 VH
VL: B1 VL with Q31A
notes: hL49 variant with the light chain CDR-L1 histidine 27D changed to alanine
B5: hL49_34_Gln (antibody, V domains shown)
VH: B1 VH
VL: B1 VL with Q31H, H39Q
notes: hL49 variant with the light chain CDR-L1 histidine 34 changed to glutamine
B6: hL49_34_Ala (antibody, V domains shown)
VH: B1 VH
VL: B1 VL with Q31H, H39A
notes: hL49 variant with the light chain CDR-L1 histidine 34 changed to alanine; also called hL49_H34A
B7: hL49 (antibody, V domains shown)
VH: B1 VH
VL: B1 VL with Q31H
notes: Humanized antibody; Only variable domains are tied to it; also called hL49 HALC; hL49 WT
B8: hL49_3X_Gln (antibody, V domains shown)
VH: B1 VH
VL: B1 VL with H39Q, H98Q
notes: hL49 triple mutant: all three light chain CDR histidines changed to glutamine; also called 3X-Gin
B9: hL49_3X_Tyr (antibody, V domains shown)
VH: B1 VH
VL: B1 VL with Q31Y, H39Y, H98Y
notes: hL49 triple mutant: all three light chain CDR histidines changed to tyrosine
B10: hL49_34_Tyr (antibody, V domains shown)
VH: B1 VH
VL: B1 VL with Q31H, H39Y
notes: hL49 variant with the light chain CDR-L1 histidine 34 changed to tyrosine; also called hL49_H34Y; hL49_Tyr

Each binder was assayed against T1, human CD228 (R&D Systems Custom02; Lot …) (assay: ELISA, coated human CD228, pH 4.55).
Method: (§1) Briefly, 100 ng of human CD228 (R&D Systems Custom02; Lot DCWR021505A) or BSA (Sigma; Catalog No. A7030-100G) were diluted in PBS and added to each well overnight at 4° C. Plates were then washed three times with PBS-T (EMD Millipore; Catalog No. 5246531EA). After washing, plates were blocked with 3% (w/v) BSA in PBS-T for 1 hour at room temperature. Excess blocking buffer was then removed and the primary antibody was added in 3-fold dilutions in diluent buffer (0.15M citrate-phosphate buffer pH 4.0-7.5) starting at an antibody concentration of 60 nM. After incubating for 1 hour at room temperature, the plates were washed 3 times and then incubated with secondary antibody (Goat anti-human IgG Fc-specific HRP-conjugated, Jackson ImmunoResearch code #109-035-098) in PBS-T with 1% BSA. After incubating for 30 minutes at room temperature, plates were washed 3 times. 100 μl TMB substrate (Life Technologies-, Cat #002023) was then added to each well. After incubating 10 minutes at room temperature, 100 μl H₂SO₄ was added to each well to stop the reaction, plates were covered with clear plate seal and read on an Envision at […]. pH-dependent binding for hL49 and nine variants with histidine substituted to alanine, glutamine, or tyrosine in the light chain CDRs are shown in FIG. 1A-1I. […] The triple mutants have lower affinity overall compared to hL49.

EC50 [nM]	Binder
365	B1
335	B2
108	B3
460	B4

The binders below were run against T1, human CD228 (R&D Systems Custom02; Lot …) (assay: ELISA, coated human CD228, pH 5.60).
Method: as §1

EC50 [nM]	Binder
17.3	B1
169	B5
271	B6
5.16	B2
405	B3
9.14	B4

These binders were tested against T1, human CD228 (R&D Systems Custom02; Lot …) (assay: ELISA, coated human CD228, pH 6.30).
Method: as §1

EC50 [nM]	Binder
136	B7
1.48	B1
23.4	B5
16.5	B6
52.6	B8
0.96	B2
73.8	B3
74.6	B9
0.99	B4

The binders below were run against T1, human CD228 (R&D Systems Custom02; Lot …) (assay: ELISA, coated human CD228, pH 7.40).
Method: as §1

EC50 [nM]	Binder
1.76	B7
0.68	B1
1.65	B5
1.2	B6
14.6	B8
0.72	B2
4.46	B3
5.43	B9
0.55	B4

What follows are binders tested against T1, human CD228 (R&D Systems Custom02; Lot …) (assay: BLI (Octet Red 384), antibody as ligand, antigen as analyte).
Method: The binding kinetics of hL49, hL49_34Ala, and hL49_Tyr were determined using BioLayer Interferometry (BLI) technology in an Octet Red 384 instrument using the antibodies as the ligands and the antigen as the analyte. […] In contrast, hL49_34Tyr has a slower on-rate but a similar off-rate compared to wild-type hL49, which may explain its reduced affinity on cells.

Kd [nM]	kobs [s⁻¹]	koff [s⁻¹]	kon [M⁻¹ s⁻¹]	Binder
13.1	0.0853	0.0011	84200	B7
132	0.0113	0.00132	10000	B10
15.8	0.282	0.00438	277000	B6

Each binder was assayed against T1, human CD228 (R&D Systems Custom02; Lot …) (assay: ELISA on CD228 protein, neutral pH (rounded form of Table 2, pH 7.40)).

EC50 [nM]	Binder
1.8	B7
0.7	B1
1.7	B5
1.2	B6
14.6	B8
0.7	B2
4.5	B3
5.4	B9
0.6	B4

The binders below were run against T2, CD228 on A375 and A2058 cells (assay: flow cytometry saturation binding on A375 cells (~18K receptors), neutral pH).
Method: (§2) The ability of various anti-CD228 antibodies to bind to CD228 on A375 cells, A2058 cells, and CD228 protein was evaluated at neutral pH using a saturation binding assay. Briefly, 1×10⁵ A2058 or A375 cells that have either 40,000 or 18,000 copies of CD228 respectively, were aliquoted per well of a 96-well v-bottom plates. Each CD228 antibody was added in concentrations ranging from 0.66 pM to 690 nM and incubated on ice for 60 minutes. Cells were pelleted and washed 3× with PBS/BSA followed by addition of 10 μg/ml of a PE labeled anti-human IgG goat secondary antibody and incubated on ice for an additional 60 minutes. Cells were pelleted and washed 3× with PBS/BSA and resuspended in 125 μL of PBS/BSA. Fluorescence was analyzed by flow cytometry, using percent of saturated fluorescent signal to determine percent bound and to subsequently calculate apparent KID. […] The histidine 34 variants show large differences for substitutions with alanine, glutamine, and tyrosine.

EC50 [nM]	Binder
1.1	B7
0.9	B1
5.5	B5
79	B10
1.6	B6
2.1	B8
1.1	B2
1.4	B3
2.1	B9
1.1	B4

Each binder was assayed against T2, CD228 on A375 and A2058 cells (assay: flow cytometry saturation binding on A2058 cells (~40K receptors), neutral pH).
Method: as §2

EC50 [nM]	Binder
0.6	B7
0.5	B1
2.1	B5
11.2	B10
1.3	B6
1.3	B8
0.7	B2
0.9	B3
1.3	B9
0.6	B4

— patent US20230295330A1 (Seagen, published 2023)
